In patent US20220298260A1 (MYTHIC THERAPEUTICS, published 2022):
Positions count from the first letter of the chain named.

B1: MYT1565 (antibody, V domains shown)
VH: QVQLVQSGAEVVKPGASVKISCKASGYTFTGYFMNWVKQSPGQSLEWIGRIHPYDGDTFYNQKFQGKATLTVDKSSNTAHMELLSLTSEDFAVYYCTRYDGSRAMDYWGQGTTVTVSS
VL: DIVLTQSPLSLAVSLGQPAIISCKASQSVHFAGTSLMHWYHQKPGQQPRLLIYRASNLEAGVPDRFSGSGSKTDFTLTISPVEAEDAATYYCQQSREYPYTFGGGTKLEIK
notes: IgG
B2: MYT1579 (antibody, V domains shown)
VH: B1 VH
VL: B1 VL with H30S, E59H
notes: IgG
B3: MYT1582 (antibody, V domains shown)
VH: B1 VH
VL: B1 VL with H30S, Q94H
notes: IgG
B4: MYT1571 (antibody, V domains shown)
VH: B1 VH
VL: B1 VL with H30S, L36H
notes: IgG
B5: MYT1589 (antibody, V domains shown)
VH: B1 VH
VL: B1 VL with H30S, T101H
notes: IgG
B6: MYT1568 (antibody, V domains shown)
VH: B1 VH
VL: B1 VL with H30S, G33H
notes: IgG
B7: MYT1573 (antibody, V domains shown)
VH: B1 VH
VL: B1 VL with H30S, H38A
notes: IgG
B8: MYT1577 (antibody, V domains shown)
VH: B1 VH
VL: B1 VL with H30S, N57H
notes: IgG
B9: MYT1580 (antibody, V domains shown)
VH: B1 VH
VL: B1 VL with H30S, A60H
notes: IgG
B10: MYT1586 (antibody, V domains shown)
VH: B1 VH
VL: B1 VL with H30S, Y98H
notes: IgG
B11: MYT1576 (antibody, V domains shown)
VH: B1 VH
VL: B1 VL with H30S, S56H
notes: IgG
B12: MYT1569 (antibody, V domains shown)
VH: B1 VH
VL: B1 VL with H30S, T34H
notes: IgG
B13: MYT1578 (antibody, V domains shown)
VH: B1 VH
VL: B1 VL with H30S, L58H
notes: IgG
B14: MYT1567 (antibody, V domains shown)
VH: B1 VH
VL: B1 VL with H30S, A32H
notes: IgG
B15: MYT1575 (antibody, V domains shown)
VH: B1 VH
VL: B1 VL with H30S, A55H
notes: IgG
B16: MYT1566 (antibody, V domains shown)
VH: B1 VH
VL: B1 VL with H30S, F31H
notes: IgG
B17: MYT1584 (antibody, V domains shown)
VH: B1 VH
VL: B1 VL with H30S, R96H
notes: IgG
B18: MYT1585 (antibody, V domains shown)
VH: B1 VH
VL: B1 VL with H30S, E97H
notes: IgG
B19: MYT1583 (antibody, V domains shown)
VH: B1 VH
VL: B1 VL with H30S, S95H
notes: IgG
B20: MYT1574 (antibody, V domains shown)
VH: B1 VH
VL: B1 VL with H30S, R54H
notes: IgG
B21: MYT1581 (antibody, V domains shown)
VH: B1 VH
VL: B1 VL with H30S, Q93H
notes: IgG
B22: MYT1570 (antibody, V domains shown)
VH: B1 VH
VL: B1 VL with H30S, S35H
notes: IgG
B23: MYT1588 (antibody, V domains shown)
VH: B1 VH
VL: B1 VL with H30S, Y100H
notes: IgG
B24: MYT2225 (antibody, V domains shown)
VH: EVQLVESGGGLVQPGGSLRLSCAASHFNIRTQSIHWVRQAPGKGLEWIGDIFPIDGITDYADSVKGRFTISADTSKNTAYLQMNSLRAEDTAVYYCARGSWSWPSGMDYYLDYWGQGTLVTVSS
VL: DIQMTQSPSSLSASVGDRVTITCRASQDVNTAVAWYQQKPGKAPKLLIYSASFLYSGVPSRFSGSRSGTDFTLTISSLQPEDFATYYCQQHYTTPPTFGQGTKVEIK
notes: IgG
B25: MYT2250 (antibody, V domains shown)
VH: B24 VH with H26G, K65H
VL: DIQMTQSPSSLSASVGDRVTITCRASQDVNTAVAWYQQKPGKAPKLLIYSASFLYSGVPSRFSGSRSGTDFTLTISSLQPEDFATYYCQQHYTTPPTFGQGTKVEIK
notes: IgG
B26: MYT2233 (antibody, V domains shown)
VH: B24 VH with H26G, I34H
VL: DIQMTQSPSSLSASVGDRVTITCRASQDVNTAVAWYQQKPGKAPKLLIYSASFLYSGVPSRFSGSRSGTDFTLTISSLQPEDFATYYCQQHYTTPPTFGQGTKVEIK
notes: IgG
B27: MYT2240 (antibody, V domains shown)
VH: B24 VH with H26G, D55H
VL: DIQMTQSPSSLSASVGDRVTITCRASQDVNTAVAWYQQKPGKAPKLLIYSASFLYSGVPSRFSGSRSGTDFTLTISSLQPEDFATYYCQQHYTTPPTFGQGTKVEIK
notes: IgG
B28: MYT2226 (antibody, V domains shown)
VH: B24 VH with H26G, F27H
VL: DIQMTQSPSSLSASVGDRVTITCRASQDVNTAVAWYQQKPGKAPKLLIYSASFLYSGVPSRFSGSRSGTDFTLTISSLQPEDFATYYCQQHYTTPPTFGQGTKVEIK
notes: IgG
B29: MYT2238 (antibody, V domains shown)
VH: B24 VH with H26G, P53H
VL: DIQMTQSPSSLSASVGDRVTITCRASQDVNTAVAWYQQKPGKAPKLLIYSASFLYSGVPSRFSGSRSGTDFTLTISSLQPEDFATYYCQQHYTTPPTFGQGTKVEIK
notes: IgG
B30: MYT2245 (antibody, V domains shown)
VH: B24 VH with H26G, Y60H
VL: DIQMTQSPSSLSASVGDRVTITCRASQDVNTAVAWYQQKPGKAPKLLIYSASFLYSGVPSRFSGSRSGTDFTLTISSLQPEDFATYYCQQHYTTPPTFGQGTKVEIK
notes: IgG
B31: MYT2227 (antibody, V domains shown)
VH: B24 VH with H26G, N28H
VL: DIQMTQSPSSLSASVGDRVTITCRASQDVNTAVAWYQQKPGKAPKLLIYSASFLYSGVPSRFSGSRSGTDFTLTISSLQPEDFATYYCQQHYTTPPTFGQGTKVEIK
notes: IgG
B32: MYT2247 (antibody, V domains shown)
VH: B24 VH with H26G, D62H
VL: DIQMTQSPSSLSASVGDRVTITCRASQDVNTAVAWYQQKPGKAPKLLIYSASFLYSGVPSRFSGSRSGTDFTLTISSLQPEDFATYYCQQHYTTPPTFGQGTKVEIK
notes: IgG
B33: MYT2230 (antibody, V domains shown)
VH: B24 VH with H26G, T31H
VL: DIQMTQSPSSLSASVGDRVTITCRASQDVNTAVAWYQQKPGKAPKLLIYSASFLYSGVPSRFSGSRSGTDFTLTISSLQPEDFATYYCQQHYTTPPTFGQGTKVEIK
notes: IgG
B34: MYT2236 (antibody, V domains shown)
VH: B24 VH with H26G, I51H
VL: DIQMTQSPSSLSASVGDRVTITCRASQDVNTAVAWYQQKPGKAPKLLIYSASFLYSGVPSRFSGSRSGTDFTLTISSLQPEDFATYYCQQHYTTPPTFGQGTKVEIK
notes: IgG
B35: MYT2246 (antibody, V domains shown)
VH: B24 VH with H26G, A61H
VL: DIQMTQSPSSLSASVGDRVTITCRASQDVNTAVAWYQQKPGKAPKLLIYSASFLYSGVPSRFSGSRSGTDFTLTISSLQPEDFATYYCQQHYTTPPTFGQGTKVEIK
notes: IgG
B36: MYT2232 (antibody, V domains shown)
VH: B24 VH with H26G, S33H
VL: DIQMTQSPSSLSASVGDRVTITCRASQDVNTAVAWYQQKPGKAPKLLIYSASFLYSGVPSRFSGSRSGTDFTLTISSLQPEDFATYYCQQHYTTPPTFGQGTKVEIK
notes: IgG
B37: MYT2239 (antibody, V domains shown)
VH: B24 VH with H26G, I54H
VL: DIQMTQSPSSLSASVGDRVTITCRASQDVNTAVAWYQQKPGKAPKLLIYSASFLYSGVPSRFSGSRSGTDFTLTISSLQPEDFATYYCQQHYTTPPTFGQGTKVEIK
notes: IgG
B38: MYT2242 (antibody, V domains shown)
VH: B24 VH with H26G, I57H
VL: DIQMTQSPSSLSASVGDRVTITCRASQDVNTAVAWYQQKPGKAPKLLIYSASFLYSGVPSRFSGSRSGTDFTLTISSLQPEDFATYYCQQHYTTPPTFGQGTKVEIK
notes: IgG
B39: MYT2241 (antibody, V domains shown)
VH: B24 VH with H26G, G56H
VL: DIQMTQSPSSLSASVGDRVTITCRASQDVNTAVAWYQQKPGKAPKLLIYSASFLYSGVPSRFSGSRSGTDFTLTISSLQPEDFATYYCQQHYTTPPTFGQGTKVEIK
notes: IgG
B40: MYT2229 (antibody, V domains shown)
VH: B24 VH with H26G, R30H
VL: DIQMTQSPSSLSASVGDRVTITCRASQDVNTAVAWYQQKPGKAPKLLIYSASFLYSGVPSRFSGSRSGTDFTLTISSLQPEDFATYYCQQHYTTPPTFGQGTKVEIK
notes: IgG
B41: MYT2248 (antibody, V domains shown)
VH: B24 VH with H26G, S63H
VL: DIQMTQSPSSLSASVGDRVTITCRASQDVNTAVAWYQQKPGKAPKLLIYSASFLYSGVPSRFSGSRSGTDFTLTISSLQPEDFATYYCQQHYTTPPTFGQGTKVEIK
notes: IgG
B42: MYT2243 (antibody, V domains shown)
VH: B24 VH with H26G, T58H
VL: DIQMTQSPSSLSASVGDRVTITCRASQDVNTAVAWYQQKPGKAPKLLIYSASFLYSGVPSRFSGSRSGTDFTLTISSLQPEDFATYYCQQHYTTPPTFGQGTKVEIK
notes: IgG
B43: MYT2249 (antibody, V domains shown)
VH: B24 VH with H26G, V64H
VL: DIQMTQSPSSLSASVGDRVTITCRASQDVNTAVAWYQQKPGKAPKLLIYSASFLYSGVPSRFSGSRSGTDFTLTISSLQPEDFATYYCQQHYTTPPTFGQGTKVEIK
notes: IgG
B44: MYT2237 (antibody, V domains shown)
VH: B24 VH with H26G, F52H
VL: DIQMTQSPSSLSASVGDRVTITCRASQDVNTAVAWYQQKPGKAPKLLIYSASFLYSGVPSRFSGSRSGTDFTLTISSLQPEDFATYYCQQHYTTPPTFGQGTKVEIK
notes: IgG
B45: MYT2234 (antibody, V domains shown)
VH: B24 VH with H26G, H35A
VL: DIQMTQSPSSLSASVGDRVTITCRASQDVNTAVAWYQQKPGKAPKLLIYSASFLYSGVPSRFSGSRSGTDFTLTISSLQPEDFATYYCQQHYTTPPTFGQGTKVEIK
notes: IgG
B46: MYT2228 (antibody, V domains shown)
VH: B24 VH with H26G, I29H
VL: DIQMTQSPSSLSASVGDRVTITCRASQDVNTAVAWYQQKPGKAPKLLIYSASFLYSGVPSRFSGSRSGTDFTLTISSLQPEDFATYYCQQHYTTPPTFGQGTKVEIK
notes: IgG
B47: MYT2231 (antibody, V domains shown)
VH: B24 VH with H26G, Q32H
VL: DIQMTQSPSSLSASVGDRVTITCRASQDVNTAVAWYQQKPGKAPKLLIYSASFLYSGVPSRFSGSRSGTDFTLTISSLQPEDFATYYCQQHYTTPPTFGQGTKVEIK
notes: IgG
B48: MYT2235 (antibody, V domains shown)
VH: B24 VH with H26G, D50H
VL: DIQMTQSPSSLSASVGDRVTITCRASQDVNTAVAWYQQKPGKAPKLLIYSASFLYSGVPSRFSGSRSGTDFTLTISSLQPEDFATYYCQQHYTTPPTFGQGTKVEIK
notes: IgG

Target: T1, FOLR1 (R&D Systems, Cat #5646-FR) (human, UniProt P15328 25-233)
T1 construct: Bought soluble protein; also called Folate Receptor 1
T1 sequence (P15328 25-233 limits assumed): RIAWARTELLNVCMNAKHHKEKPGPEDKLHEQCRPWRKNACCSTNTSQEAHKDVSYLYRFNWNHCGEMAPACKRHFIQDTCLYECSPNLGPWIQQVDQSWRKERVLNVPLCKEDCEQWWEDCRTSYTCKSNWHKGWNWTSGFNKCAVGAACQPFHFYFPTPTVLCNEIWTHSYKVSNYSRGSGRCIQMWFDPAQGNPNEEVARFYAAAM
Assay: BLI, IgG on anti-human Fc sensor, 50 nM FOLR1

Binding result, binds:
B1, B2, B3, B4, B5, B6, B7, B8, B9, B10, B11, B12, B13, B14, B15, B16, B17, B18, B19, B20, B21, B22, B23, B24, B25, B26, B27, B28, B29, B30, B31, B32, B33, B34, B35, B36, B37, B38, B39, B40, B41, B42, B43, B44, B45, B46, B47, B48
